In patent US7087215B2 (priority 1998, dated 2006):

Columns and labels:
[1] = Plasma insulin levels by RIA method after injection or mouth spray in diabetic volunteers; assay type: in vivo, human
Procedure: (§1) Ten diabetic volunteers were asked to fast overnight and not have any breakfast prior to dosing. On the first day, the volunteers were given 10 units insulin by injection (regular fast acting insulin, obtained from Eli Lilly). On the second day, the volunteers were given 60 units insulin of this example (10 puffs of 6 units each) into the mouth, without inhalation. Plasma insulin levels were measured at intervals by the RIA method for 3 hours. Blood glucose levels were also monitored at intervals using Bayer's glucometer Elite for 3 hours.
(§2) Tests were also conducted with 40 units of spray at 10 puffs each, and compared to 10 units injected by measuring plasma levels and glucose levels as above. The results are shown in Table 7 (plasma) and 8 (glucose).
as §1, with “injection.” for “injection (regular fast acting insulin, obtained from Eli Lilly).”
(§3) On the first day, each patient had 7 units regular fast acting insulin, obtained from Eli Lilly, administered by injection. On the second day, each patient was given 70 units of the insulin formulation of this Example (7 puffs of 10 unit each) into the mouth, without inhalation. Blood samples were collected and plasma glucose levels were measured at intervals using Bayer's glucometer Elite for 3 hours. Insulin levels were also monitored at intervals by the RIA method for 3 hours.

blood glucose levels = assay: Blood glucose levels by Bayer's glucometer Elite after injection or mouth spray in fasted diabetic volunteers; assay type: in vivo, human
Procedure: as §1, §2
as §1, with “injection.” for “injection (regular fast acting insulin, obtained from Eli Lilly).”
as §3

[2] = time 0 min, insulin 10 units by injection, Example 2 60 units by mouth spray, average of ten fasted diabetic volunteers
[3] = time 0 min, insulin 10 units by injection, Example 3 60 units by mouth spray, average of ten fasted diabetic volunteers
[4] = time 0 min, insulin 10 units injected, Example 2 40 units of spray, measured as above
[5] = time 15 min, insulin 10 units by injection, Example 2 60 units by mouth spray, average of ten fasted diabetic volunteers
[6] = time 15 min, insulin 10 units by injection, Example 3 60 units by mouth spray, average of ten fasted diabetic volunteers
[7] = time 15 min, insulin 10 units injected, Example 2 40 units of spray, measured as above
[8] = time 30 min, insulin 10 units by injection, Example 2 60 units by mouth spray, average of ten fasted diabetic volunteers
[9] = time 30 min, insulin 10 units by injection, Example 3 60 units by mouth spray, average of ten fasted diabetic volunteers
[10] = time 30 min, insulin 10 units injected, Example 2 40 units of spray, measured as above
[11] = time 45 min, insulin 10 units by injection, Example 2 60 units by mouth spray, average of ten fasted diabetic volunteers
[12] = time 45 min, insulin 10 units by injection, Example 3 60 units by mouth spray, average of ten fasted diabetic volunteers
[13] = time 60 min, insulin 10 units by injection, Example 2 60 units by mouth spray, average of ten fasted diabetic volunteers
[14] = time 60 min, insulin 10 units by injection, Example 3 60 units by mouth spray, average of ten fasted diabetic volunteers
[15] = time 60 min, insulin 10 units injected, Example 2 40 units of spray, measured as above
[16] = time 90 min, insulin 10 units by injection, Example 2 60 units by mouth spray, average of ten fasted diabetic volunteers
[17] = time 90 min, insulin 10 units by injection, Example 3 60 units by mouth spray, average of ten fasted diabetic volunteers
[18] = time 90 min, insulin 10 units injected, Example 2 40 units of spray, measured as above
[19] = time 120 min, insulin 10 units by injection, Example 2 60 units by mouth spray, average of ten fasted diabetic volunteers
[20] = time 120 min, insulin 10 units by injection, Example 3 60 units by mouth spray, average of ten fasted diabetic volunteers
[21] = time 120 min, insulin 10 units injected, Example 2 40 units of spray, measured as above
[22] = time 150 min, insulin 10 units by injection, Example 2 60 units by mouth spray, average of ten fasted diabetic volunteers
[23] = time 150 min, insulin 10 units by injection, Example 3 60 units by mouth spray, average of ten fasted diabetic volunteers
[24] = time 150 min, insulin 10 units injected, Example 2 40 units of spray, measured as above
[25] = time 180 min, insulin 10 units by injection, Example 2 60 units by mouth spray, average of ten fasted diabetic volunteers
[26] = time 180 min, insulin 10 units by injection, Example 3 60 units by mouth spray, average of ten fasted diabetic volunteers
[27] = time 180 min, insulin 10 units injected, Example 2 40 units of spray, measured as above

Substance insulin has a Plasma insulin level [1, 2] of 10 micromoles per ml, a Plasma insulin level [1, 3] of 9 micromoles per ml and a Plasma insulin level [1, 4] of 9 micromoles per ml. For the same substance, the Plasma insulin level [1, 5] was 9.1 micromoles per ml, the Plasma insulin level [1, 6] was 9.1 micromoles per ml and the Plasma insulin level [1, 7] was 9 micromoles per ml. For the same substance, the Plasma insulin level [1, 8] was 11 micromoles per ml, the Plasma insulin level [1, 9] was 14 micromoles per ml and the Plasma insulin level [1, 10] was 13 micromoles per ml. It also gave a Plasma insulin level [1, 11] of 16 micromoles per ml, a Plasma insulin level [1, 12] of 20 micromoles per ml and a Plasma insulin level ([1]; time 45 min, insulin 10 units injected, Example 2 40 units of spray, measured as above) of 19 micromoles per ml. For the same substance, the Plasma insulin level [1, 13] was 31 micromoles per ml, the Plasma insulin level [1, 14] was 40 micromoles per ml and the Plasma insulin level [1, 15] was 34 micromoles per ml. For the same substance, the Plasma insulin level [1, 16] was 45 micromoles per ml, the Plasma insulin level [1, 17] was 48 micromoles per ml and the Plasma insulin level [1, 18] was 45 micromoles per ml. It also gave a Plasma insulin level [1, 19] of 32 micromoles per ml, a Plasma insulin level [1, 20] of 39 micromoles per ml and a Plasma insulin level [1, 21] of 42 micromoles per ml. It also gave a Plasma insulin level [1, 22] of 25 micromoles per ml, a Plasma insulin level [1, 23] of 34 micromoles per ml and a Plasma insulin level [1, 24] of 35 micromoles per ml. It also gave a Plasma insulin level [1, 25] of 20 micromoles per ml, a Plasma insulin level [1, 26] of 27 micromoles per ml and a Plasma insulin level [1, 27] of 24 micromoles per ml. The Blood glucose level (blood glucose levels; [2]) was 6.1 millimoles per liter, the Blood glucose level (blood glucose levels; [3]) was 6.6 millimoles per liter and the Blood glucose level (blood glucose levels; [4]) was 5.8 millimoles per liter. The Blood glucose level (blood glucose levels; [5]) was 6.0 millimoles per liter, the Blood glucose level (blood glucose levels; [6]) was 6.5 millimoles per liter and the Blood glucose level (blood glucose levels; [7]) was 6.0 millimoles per liter. The Blood glucose level (blood glucose levels; [8]) was 5.9 millimoles per liter, the Blood glucose level (blood glucose levels; [9]) was 6.1 millimoles per liter and the Blood glucose level (blood glucose levels; [10]) was 5.9 millimoles per liter. The Blood glucose level (blood glucose levels; [11]) was 5.5 millimoles per liter, the Blood glucose level (blood glucose levels; [12]) was 5.5 millimoles per liter and the Blood glucose level (blood glucose levels; [13]) was 5.1 millimoles per liter. The Blood glucose level (blood glucose levels; [14]) was 4.9 millimoles per liter, the Blood glucose level (blood glucose levels; [15]) was 5.5 millimoles per liter and the Blood glucose level (blood glucose levels; [16]) was 4.5 millimoles per liter. The Blood glucose level (blood glucose levels; [17]) was 4.5 millimoles per liter, the Blood glucose level (blood glucose levels; [18]) was 5.0 millimoles per liter and the Blood glucose level (blood glucose levels; [19]) was 3.8 millimoles per liter. It also gave a Blood glucose level (blood glucose levels; [20]) of 3.8 millimoles per liter, a Blood glucose level (blood glucose levels; [21]) of 4.5 millimoles per liter and a Blood glucose level (blood glucose levels; [22]) of 4.2 millimoles per liter. For the same substance, the Blood glucose level (blood glucose levels; [23]) was 3.5 millimoles per liter, the Blood glucose level (blood glucose levels; [24]) was 4.1 millimoles per liter and the Blood glucose level (blood glucose levels; [25]) was 4.4 millimoles per liter. The Blood glucose level (blood glucose levels; [26]) was 4.4 millimoles per liter and the Blood glucose level (blood glucose levels; [27]) was 3.9 millimoles per liter.
